The text below walks through data of patent US20260263521A1 (AIMED BIO, published 2026).

Usually EC50 stands for the concentration giving half of the maximal effect. The term EC50 (read off the curve) denotes the midpoint of the concentration-response curve.

Assay [1] concerns the target T1, human CD200R1 expressed on cells (Jurkat-CD200R1, U937-CD200R1, HH cells) (human, UniProt Q8TD46 25-348).
T1 construct: whole, on cells; also called HH (CRL-2105); cell surface-expressed CD200R1
T1 sequence (looked up): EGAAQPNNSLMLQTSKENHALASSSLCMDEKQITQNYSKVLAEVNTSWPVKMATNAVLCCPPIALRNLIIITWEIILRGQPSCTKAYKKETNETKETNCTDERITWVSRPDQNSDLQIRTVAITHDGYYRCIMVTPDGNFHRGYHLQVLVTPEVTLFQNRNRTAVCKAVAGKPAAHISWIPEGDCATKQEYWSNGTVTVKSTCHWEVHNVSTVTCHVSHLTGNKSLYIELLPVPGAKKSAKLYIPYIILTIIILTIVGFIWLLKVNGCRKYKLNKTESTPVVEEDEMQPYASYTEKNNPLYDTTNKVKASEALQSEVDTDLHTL
Kind of assay: flow cytometry, HH cells. On the procedure:
(§1) Two additional wells were treated with 10 μl of mouse IgG1K (BD, #555751) and 5 μl of commercial CD200R1 antibody (Biolegend, #329308) to determine CD200R1 expression on the cell line surface for cell quality control.
(§2) The antibodies were serially diluted 10-fold from a maximum concentration of 100 nM to 10 nM, 1 nM, […], and were added to the pre-seeded cells. After reaction for 1 hour at 4° C., the cells were treated with Alexa-647 goat anti-human IgG (H+L) cross-adsorbed secondary antibody (Invitrogen, #A21445) and incubated for an additional 30 minutes at 4° C. After washing twice with FACS buffer, flow cytometry was performed using a Novocyte Flow cytometer (Agilent). Using GraphPad Prism software, the EC₅₀ was determined using a nonlinear graph model of log (agonist) vs. response-variable slope, as shown in Table 32.

The target in assay [2] is T1, human CD200R1 expressed on cells …. Kind of assay: flow cytometry, Jurkat-CD200R cells. As to the method: as §1, §2
A general note: Flow cytometry measures light scatter and fluorescence of single cells or particles in a stream.

The target in assay [3] is T2, recombinant human CD200R1 Fc chimera protein, CF (R&D systems, 3414-CD) (human, UniProt Q8TD46 27-266).
T2 construct: Bought; also called CD200R1-Fc protein; human CD200R1 Fc protein; Fc part of the bought chimera not given
T2 sequence (looked up): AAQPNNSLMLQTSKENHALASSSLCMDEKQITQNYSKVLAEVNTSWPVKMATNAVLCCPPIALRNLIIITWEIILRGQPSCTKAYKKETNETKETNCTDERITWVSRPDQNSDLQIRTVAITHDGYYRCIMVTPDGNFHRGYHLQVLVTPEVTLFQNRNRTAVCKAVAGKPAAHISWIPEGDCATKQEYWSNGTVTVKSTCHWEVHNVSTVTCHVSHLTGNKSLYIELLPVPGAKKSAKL
Nature of the assay: ELISA, plate-bound human CD200R1-Fc (2 ug/mL), IgG 0.0192-300 nM, anti-human IgG F(ab')2-HRP, OD 450 nm; panel 'human CD200R1'. On the procedure: 96-well plates were coated with human CD200R1 (R&D systems, 3414-CD) and mouse CD200R1 protein (R&D systems, 2554-CD) at a concentration of 2 μg/mL at 4° C. for 16 hours and then were blocked with 3% skim milk.
Color was developed with a TMB substrate solution (Thermo Scientific, 34029, 1-Step™ TMB-ELISA Ultra Substrate Solution). The color reaction was stopped with stop solution (Invitrogen, SS04, ELISA Stop Solution). The absorbance was measured at an optical density of 450 nm.
(An ELISA detects its analyte on a solid surface through an enzyme-linked reagent.)

Assay [4] addresses T3, monkey CD200RLa (Sino Biological, 11576-C02H) recombinant protein (monkey (cyno), UniProt A0A2K5W6R0 30-246).
T3 construct: Bought; construct not described; also called cyno CD200RLa
T3 sequence: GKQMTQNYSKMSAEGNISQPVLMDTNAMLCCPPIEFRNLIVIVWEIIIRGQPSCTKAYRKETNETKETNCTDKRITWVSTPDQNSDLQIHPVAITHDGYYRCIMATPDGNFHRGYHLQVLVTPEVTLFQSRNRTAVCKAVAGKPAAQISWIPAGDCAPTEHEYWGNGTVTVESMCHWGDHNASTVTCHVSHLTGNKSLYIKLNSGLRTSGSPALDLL
Nature of the assay: ELISA, plate-bound monkey CD200RLa (2 ug/mL), antibody 0.0192-300 nM, O.D 450 nm; panel 'recombinant cynomolgus CD200RLa/Fc'. As to the method: 96-well plates were coated with human CD200RLa (Sino Biological, 11620-H08H) and monkey CD200RLa (Sino Biological, 11576-C02H) recombinant proteins at a concentration of 2 μg/mL at 4° C. for 16 hours, and blocked with 3% skim milk for 1 hour. […] Color was developed with a TMB substrate solution (Thermo Scientific, 34029, 1-Step™ Ultra TMB-ELISA Substrate Solution). The color reaction was stopped with stop solution (Invitrogen, SS04, ELISA Stop Solution).

In assay [5] the target is T1, human CD200R1 expressed on cells …. Nature of the assay: flow cytometry on Jurkat-CD200R1 and HH cells, 500 nM antibody in IgG1 form. The procedure, abridged:
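Cells at 1×10⁵ per well incubated with antibody 1 h at 4 °C, then Alexa-647 anti-human IgG (H+L) secondary for 30 min at 4 °C. After two washes, binding read by flow cytometry.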

Assay [6] has as its target T4, human CD200RLa (Sino Biological, 11620-H08H) recombinant protein (human, UniProt Q6Q8B3 24-239).
T4 construct: Bought; construct not described
T4 sequence (looked up): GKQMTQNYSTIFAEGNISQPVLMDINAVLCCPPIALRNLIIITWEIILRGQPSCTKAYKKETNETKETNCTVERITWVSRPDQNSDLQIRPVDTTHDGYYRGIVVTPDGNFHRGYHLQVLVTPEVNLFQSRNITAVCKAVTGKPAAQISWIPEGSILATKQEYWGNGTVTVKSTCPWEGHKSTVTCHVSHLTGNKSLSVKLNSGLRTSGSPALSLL
Kind of assay: ELISA, plate-bound human CD200RLa (2 ug/mL), antibody 0.0192-300 nM, O.D 450 nm; panel 'recombinant human CD200RLa'. In short, it runs like this: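 Plates coated overnight (16 h, 4° C) with human or cynomolgus CD200RLa recombinant protein, blocked with 3% skim milk; bound antibody detected by TMB colour development, reaction stopped before reading.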

Assay [7] addresses T1, human CD200R1 expressed on cells …. Nature of the assay: flow cytometry, U937-CD200R cells. On the procedure:
as §1, §2

B1: P001009 (IgG) (antibody, V domains shown)
VH: EVQLLESGGGLVQPGGSLRLSCAASGFTFSSYDMSWVRQAPGKGLEWVSWISHGGGSIYYADSVKGRFTISRDNSKNTLYLQMNSLRAEDTAVYYCARDAPAYSAPLFDYWGQGTLVTVSS
VL: QSVLTQPPSASGTPGQRVTISCSGSSSNIGNNAVNWYQQLPGTAPKLLIYYDSNRPSGVPDRFSGSKSGTSASLAISGLRSEDEADYYCAAWDDSLSGYVFGGGTKLTVL
notes: also called P001009 WT; P001009 wt
For B1, the values for the EC50 in assay [1], in assay [2] and in assay [7] were 0.19 nM, 0.22 nM and 0.41 nM, respectively. The “EC50 (read off the curve)” value in assay [3] is approximately 0.5 nM. The binding result in assay [4] and in assay [6] was “no binding (tested: 300 nM)” in each case. In addition, the “MFI normalized to P001017 (chimeric OX108), %” value in assay [5] is more than 50%.
